Values of other authors, collected in publication PMC9772450, “Gel-forming antagonist provides a lasting effect on CGRP-induced vasodilation” (Frontiers in Pharmacology, 2022).

What was measured:
[1] = antibodies; ref https://go.drugbank.com/drugs
[2] = test system: capsaicin-induced dermal blood flow; conditions: in patients; ref Vu et al., 2017
Description: It is known that anti-CGRP gepants could occupy a binding site close to the interface of the N-terminal domains of CLR and RAMP1, and act by allosteric regulation ([Miller et al., 2010]). Although the gepants compounds have low IC50 values in receptor activation assays in vitro, it is well documented that gepants need high concentrations to bloc ...

migraine = conditions: 31% at baseline; 40–50% in the placebo group; ref Cady et al., 2022
Description: Migraine is a common complex neurovascular disorder that is manifested as episodic and predominantly unilateral throbbing headache with hypersensitivity to light, sound, and movement ([Erdener and Dalkara, 2014]; [Schuster and Rapoport, 2016]). According to the World Health Organization, 324 million people worldwide suffer from incapacitating migraine in 2008. In ∼ one-third of patients, migraine headaches are accompanied by an aura involving neurological symptoms such as transient visual, sensory, or motor disturbances ([Goadsby et al., 2002]). In the US, it was reported that 15% of Americans ...

Molecule	Volume of distribution [1]	Concentration required for 50% inhibition of capsaicin-induced dermal blood flow [2]	Concentration required for 99% inhibition of capsaicin-induced dermal blood flow [2]	Proportion of patients with moderate/maximal optimization at week four (migraine)
galcanezumab: anti-CGRP antibody (antibody, chains of the INN, looked up, V domains shown) VH: QVQLVQSGAEVKKPGSSVKVSCKASGYTFGNYWMQWVRQAPGQGLEWMGAIYEGTGKTVYIQKFADRVTITADKSTSTAYMELSSLRSEDTAVYYCARLSDYVSGFGYWGQGTTVTVSS VL: DIQMTQSPSSLSASVGDRVTITCRASKDISKYLNWYQQKPGKAPKLLIYYTSGYHSGVPSRFSGSGSGTDFTLTISSLQPEDFATYYCQQGDALPPTFGGGTKVEIK	7.3 L			
erenumab: anti-CGRP receptor antibody (antibody, chains of the INN, looked up, V domains shown) VH: QVQLVESGGGVVQPGRSLRLSCAASGFTFSSFGMHWVRQAPGKGLEWVAVISFDGSIKYSVDSVKGRFTISRDNSKNTLFLQMNSLRAEDTAVYYCARDRLNYYDSSGYYHYKYYGMAVWGQGTTVTVSS VL: QSVLTQPPSVSAAPGQKVTISCSGSSSNIGNNYVSWYQQLPGTAPKLLIYDNNKRPSGIPDRFSGSKSGTSTTLGITGLQTGDEADYYCGTWDSRLSAVVFGGGTKLTVL	3.86 L	0.255 mg/L	1.134 mg/L	
eptinezumab: anti-CGRP antibody (antibody, chains of the INN, looked up, V domains shown) VH: EVQLVESGGGLVQPGGSLRLSCAVSGIDLSGYYMNWVRQAPGKGLEWVGVIGINGATYYASWAKGRFTISRDNSKTTVYLQMNSLRAEDTAVYFCARGDIWGQGTLVTVSS VL: QVLTQSPSSLSASVGDRVTINCQASQSVYHNTYLAWYQQKPGKVPKQLIYDASTLASGVPSRFSGSGSGTDFTLTISSLQPEDVATYYCLGSYDCTNGDCFVFGGGTKVEIK				58%
